Values quoted from earlier work, collected in PMC3024536.
pKd: −log10 of the molar value.

Target: CD8αα (Mus musculus) (UniProt P01731)
UniProt P01731, sequence (P01731 28-196): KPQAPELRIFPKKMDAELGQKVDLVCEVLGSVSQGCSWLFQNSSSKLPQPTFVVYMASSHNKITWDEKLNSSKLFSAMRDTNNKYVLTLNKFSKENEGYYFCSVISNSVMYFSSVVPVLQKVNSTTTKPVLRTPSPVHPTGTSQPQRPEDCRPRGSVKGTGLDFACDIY

thymus leukaemia antigen (TL) (from UniProt P14432)
pKd: 4.92
